The source of these data is paper PMC12158487, “Tracing the aggregation pathway of the scaffold protein DISC1: Structural implications for chronic mental illnesses” (Journal of Structural Biology: X, 2025).

Data set [1] concerns the target DISC1 C-region L807-frameshift, His6 fusion (human) (UniProt Q9NRI5). Kind of data set: ITC; 10 µM His-tagged protein alone in the 200 µL cell, 20 °C, stirred at 300 rpm; heat flow of self-association followed in real time, peak area integrated. In general terms: In ITC the heat of successive injections is recorded.
In data set [2] the target is T1, DISC1 C-region (WT), His6 fusion (human), Q9NRI5.
T1 chain: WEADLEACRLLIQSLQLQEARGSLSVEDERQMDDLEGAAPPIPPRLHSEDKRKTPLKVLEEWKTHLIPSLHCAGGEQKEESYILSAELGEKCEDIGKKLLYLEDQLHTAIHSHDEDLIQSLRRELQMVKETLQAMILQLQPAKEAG
The data set is described as above. As to conditions: remark: other sources report otherwise.

The target of data set [3] is T1, DISC1 C-region (WT), His6 fusion …. Kind of data set: ITC; 10 µM His-tagged WT-C-region alone in the cell, 30 °C; heat flow of self-association followed in real time, peak area integrated. The note with it: remark: other sources report otherwise.
For data set [4] the target is unchanged. Kind of data set: dynamic light scattering; 10 µM protein, 20 °C, 500 µL sample, centrifuged at 21,000 x g before measurement; apparent hydrodynamic radii followed over time. The note with it: remark: other sources report otherwise.
Data set [5] deals with the molecule itself. Kind of data set: ITC; one-week-old sample of S704C, 10 µM protein alone in the cell, 20 °C; heat flow of self-association followed in real time, peak area integrated.
Data set [6] deals with the molecule itself. Kind of data set: ITC; 10 µM His-tagged protein alone in the 200 µL cell, 20 °C, stirred at 300 rpm; heat flow of self-association followed in real time, peak area integrated.

Ends that are not written are not given here.

On to “DISC1 C-region L807-frameshift, His6 fusion (from UniProt Q9NRI5 691-807) (domain or fragment)”, for which the dH in data set [1] is -1060 kcal/mol.

B1: DISC1 C-region (WT), His6 fusion, Q9NRI5 691-836 (domain or fragment)
chain: WEADLEACRLLIQSLQLQEARGSLSVEDERQMDDLEGAAPPIPPRLHSEDKRKTPLKVLEEWKTHLIPSLHCAGGEQKEESYILSAELGEKCEDIGKKLLYLEDQLHTAIHSHDEDLIQSLRRELQMVKETLQAMILQLQPAKEAG
In the case of B1, the dH in data set [2] was -547 kcal/mol; in data set [3], -264 kcal/mol. The stoichiometry N (in general, a count of units in the complex or per binding partner) in data set [4] amounted to 4.

B2: DISC1 C-region S704C, His6 fusion (domain or fragment, human, UniProt Q9NRI5 691-836, looked up)
chain: WEADLEACRLLIQCLQLQEARGSLSVEDERQMDDLEGAAPPIPPRLHSEDKRKTPLKVLEEWKTHLIPSLHCAGGEQKEESYILSAELGEKCEDIGKKLLYLEDQLHTAIHSHDEDLIQSLRRELQMVKETLQAMILQLQPAKEAG
notes: Disrupted in schizophrenia 1 (DISC1), human, C-region, res; 691-836, numbered in the context of the full-length protein, with S704C; also called S704C C-region; source: E. coli BL21 (DE3) pLysE T1R, purified (Co2+-NTA)
On to B2, for which the dH in data set [5] was -869 kcal/mol; in data set [6], -240 kcal/mol.

B3: DISC1 C-region S713E, His6 fusion (domain or fragment, human, UniProt Q9NRI5 691-836, looked up)
chain: WEADLEACRLLIQSLQLQEARGELSVEDERQMDDLEGAAPPIPPRLHSEDKRKTPLKVLEEWKTHLIPSLHCAGGEQKEESYILSAELGEKCEDIGKKLLYLEDQLHTAIHSHDEDLIQSLRRELQMVKETLQAMILQLQPAKEAG
notes: Disrupted in schizophrenia 1 (DISC1), human, C-region, res; 691-836, numbered in the context of the full-length protein, with S713E; in the cited work it may be a phosphomimetic made by people (surmise); also called S713E C-region variant; source: E. coli BL21 (DE3) pLysE T1R, purified (Co2+-NTA)
Take B3: in data set [6], the dH is -512 kcal/mol.

B4: DISC1 β-core (717-761), His6 fusion (domain or fragment, human, UniProt Q9NRI5 717-761, looked up)
chain: EDERQMDDLEGAAPPIPPRLHSEDKRKTPLKVLEEWKTHLIPSLH
modifications: also: His6 fusion, end not given here
notes: 717-761, numbered in the context of the full-length protein; also called β-core peptide; source: E. coli BL21 (DE3) pLysE T1R, purified (Co2+-NTA)
With B4, the dH in data set [6] is -843 kcal/mol.
